Test results taken from US20250283060 (BOARD OF REGENTS, THE UNIVERSITY OF TEXAS SYSTEM, published 2025).

How the values were obtained:
[1] = target: NPT7 v443 with NLS removed (synthetic construct); assay: cell_activity; ZsGreen reporter in HEK293T, 48 h, cytoplasmic; conditions: tags: NLS removed
NPT7 variant ES-443 (V3) = NPT7 variant ES-443 (V3) (synthetic construct); assay: cell_activity; ZsGreen reporter fluorescence in S. cerevisiae; reflects transcription and capping; conditions: tags: SV40 NLS N-terminal

B1: T7 promoter WT (dsDNA)
DNA 1: TAATACGACTCACTATA
DNA 2: TATAGTGAGTCGTATTA
- binding signal [1]: ~1.8 fold vs WT NPT7
- binding signal (NPT7 variant ES-443 (V3)): 76 fold vs K282A control
